Numbered stars: 1 amine (or outer) side, 2 acyl side, 3 side chain; on linkers, the order of the positions; unused ones are H or OH. Square brackets hold non-standard residues; d marks the D form. Suc = O=C(CCC(=O)[*:2])[*:1]; NMeV = CN[C@H](C(=O)O)C(C)C; βAla = NCCC(=O)O
Assays:
Experiment in all cases: cell-based or functional assay
Tilapia tac3 receptor = Tilapia tac3 receptor (tilapia)
Zebrafish tac3 receptor = Zebrafish tac3 receptor (zebrafish)
Salmon tac3 receptor = Salmon tac3 receptor (salmon)

| Binder | reduction of the NKB-induced luciferase response (CRE-Luc) (Tilapia tac3 receptor) | reduction of the NKB-induced response (CRE-Luc) (Zebrafish tac3 receptor) | IC50 of inhibition of slNKB-induced SRE-Luciferase activity (Salmon tac3 receptor) | reduction of the NKB-induced luciferase response (CRE-Luc) (Salmon tac3 receptor) |
| --- | --- | --- | --- | --- |
| Suc-DSF[NMeV][βAla]LM-NH2 (SMILES CSCC[C@H](NC(=O)[C@H](CC(C)C)NC(=O)CCNC(=O)[C@H](C(C)C)N(C)C(=O)[C@H](Cc1ccccc1)NC(=O)[C@H](CO)NC(=O)[C@H](CC(=O)O)NC(=O)CCC(=O)O)C(N)=O) [Ant-3] | ~60% | ~60% | 0.00616 µM | – |
| Suc-D[dW][NMeV][βAla]LM-NH2 (SMILES CSCC[C@H](NC(=O)[C@H](CC(C)C)NC(=O)CCNC(=O)[C@H](C(C)C)N(C)C(=O)[C@@H](Cc1c[nH]c2ccccc12)NC(=O)[C@H](CC(=O)O)NC(=O)CCC(=O)O)C(N)=O) [Ant-5] | ~60% | ~60% | – | – |
| Suc-DF[NMeV][βAla]LM-NH2 (SMILES CSCC[C@H](NC(=O)[C@H](CC(C)C)NC(=O)CCNC(=O)[C@H](C(C)C)N(C)C(=O)[C@H](Cc1ccccc1)NC(=O)[C@H](CC(=O)O)NC(=O)CCC(=O)O)C(N)=O) [Ant-2] | ~60% | ~60% | 2.6 µM | – |
| Suc-DI[dW][NMeV][βAla]LM-NH2 (SMILES CC[C@H](C)[C@H](NC(=O)[C@H](CC(=O)O)NC(=O)CCC(=O)O)C(=O)N[C@H](Cc1c[nH]c2ccccc12)C(=O)N(C)[C@H](C(=O)NCCC(=O)N[C@@H](CC(C)C)C(=O)N[C@@H](CCSC)C(N)=O)C(C)C) [Ant-4] | ~60% | ~60% | – | ~60% |

Now from value to binder:

| reduction of the NKB-induced luciferase response (CRE-Luc) (Tilapia tac3 receptor) | reduction of the NKB-induced response (CRE-Luc) (Zebrafish tac3 receptor) | IC50 of inhibition of slNKB-induced SRE-Luciferase activity (Salmon tac3 receptor) | reduction of the NKB-induced luciferase response (CRE-Luc) (Salmon tac3 receptor) | Binder |
| --- | --- | --- | --- | --- |
| ~60% | ~60% | – | – | Suc-DIF[NMeV][βAla]LM-NH2 (SMILES CC[C@H](C)[C@H](NC(=O)[C@H](CC(=O)O)NC(=O)CCC(=O)O)C(=O)N[C@@H](Cc1ccccc1)C(=O)N(C)[C@H](C(=O)NCCC(=O)N[C@@H](CC(C)C)C(=O)N[C@@H](CCSC)C(N)=O)C(C)C) [Ant-1] |
| ~60% | ~60% | 0.87 µM | ~60% | Suc-DS[dW][NMeV][βAla]LM-NH2 (SMILES CSCC[C@H](NC(=O)[C@H](CC(C)C)NC(=O)CCNC(=O)[C@H](C(C)C)N(C)C(=O)[C@@H](Cc1c[nH]c2ccccc12)NC(=O)[C@H](CO)NC(=O)[C@H](CC(=O)O)NC(=O)CCC(=O)O)C(N)=O) [Ant-6] |

Source: patent publication US20190169256A1 (YISSUM RESEARCH DEVELOPMENT COMPANY OF THE HEBREW …, published 2019)
